Test results from publication PMC7102495.
One block for each substance: values may come before it.

Assays:
Assay in all cases: FRET or BRET
[1] = biological target: ^NDD_(MlnC)+mTurquoise2 (Bacillus amyloliquefaciens FZB42 | not stated)
[2] = biological target: ^NDD_(DifG)+mTurquoise2 (Bacillus amyloliquefaciens FZB42 | not stated)
[3] = biological target: ^NDD_(BaeN)+mTurquoise2 (Bacillus amyloliquefaciens FZB42 | not stated)

Kd [1]: 2.9 µM
Substance: Venus+^CDD_(MlnB)

Kd [2]: 6.3 µM
Substance: Venus+^CDD_(DifF)

Kd [3]: 7.4 µM
Substance: Venus+^CDD_(BaeM)
